Results taken from US20140120555A1 (PIERRE FABRE MEDICAMENT, published 2014).
One block for each binder: values may come before it.

Legend:
[1] = target: T1, Recombinant human FcγRI [CD64], Gln16-Pro288 with C-terminal 6-His tag (human, UniProt P12314 16-288); test: SPR (Biacore X): h-FcγRI injected over c515H7 Mab immobilized on a CM4 sensorchip; heterogeneous ligand model, minor component (0%)
T1 construct: range 16-288; Soluble form bought from R&D Systems; also called h-FcγRI
Procedure: (§1) 2017 RU of c515H7 Mab were immobilized using the amine coupling kit chemistry on the second flowcell (FC2) of a CM4 sensorchip. The first flowcell (FC1) activated by NHS and EDC mixture and des-activated by ethanolamine served as the reference surface to check and subtract the non specific interaction between the analyte (Fc gamma receptors) and the sensorchip matrix.
(§2) The kinetic experiments were carried out at 25° Celsius at a flow rate of 30 μl/min. The HBS-EP buffer was used either as the running buffer or for the preparation of analyte solutions. The analyte solutions were injected during 90 seconds (association phase) with a 90 seconds delay (dissociation phase). An injection of running buffer as analyte was used as a double reference. All the sensorgrams were corrected by this double reference sensorgram.
(§3) After each injection of the analyte, the sensorchip was regenerated by injection of 20 mM NaOH, 75 mM NaCl solution.

[2] = target: T2, Recombinant human FcγRIIIA variant V [CD16a], Gln17-Gln208 with C-terminal 6-His tag (human, UniProt P08637 17-208); test: SPR (Biacore X): h-FcγRIIIA injected over c515H7 Mab immobilized on a CM4 sensorchip; heterogeneous ligand model, major component (81%)
T2 construct: range 17-208; 'variant V' is given without a position, so no substitution is written; also called h-FcγRIIIA
Procedure: as §1, §2, §3

[3] = target: T3, Recombinant mouse FcγRI [CD64], Gln25-Pro297 with C-terminal 6-His tag (mouse, UniProt P26151 25-297); test: SPR (Biacore X): m-FcγRI injected over c515H7 Mab immobilized on a CM4 sensorchip; heterogeneous ligand model, minor component (19%)
T3 construct: range 25-297; Soluble form bought from R&D Systems; also called m-FcγRI
T3 sequence: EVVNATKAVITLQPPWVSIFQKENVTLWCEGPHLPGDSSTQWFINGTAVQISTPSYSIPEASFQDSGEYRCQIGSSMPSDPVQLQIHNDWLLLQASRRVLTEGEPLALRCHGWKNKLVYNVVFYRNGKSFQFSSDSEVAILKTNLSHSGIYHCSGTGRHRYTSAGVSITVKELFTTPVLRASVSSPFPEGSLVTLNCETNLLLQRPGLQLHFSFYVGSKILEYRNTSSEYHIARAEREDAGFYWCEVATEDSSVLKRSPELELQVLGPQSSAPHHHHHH
Procedure: as §1, §2, §3

[4] = target: T1, Recombinant human FcγRI [CD64], …; test: SPR (Biacore X): h-FcγRI injected over hz515H7VH1D76NVL2 Mab immobilized on a CM4 sensorchip; Langmuir model
Procedure: The experiments were carried out using a Biacore X device. The soluble forms of the four Fc […]gamma receptors used in this study were purchased from R&D Systems: […]

[5] = target: T4, Recombinant mouse FcγRIII [CD16], Ala31-Thr215 with C-terminal 10-His tag (mouse, UniProt P08508 31-215); test: SPR (Biacore X): m-FcγRIII injected over hz515H7VH1D76NVL2 Mab immobilized on a CM4 sensorchip; Langmuir model
T4 construct: Soluble form bought from R&D Systems; also called m-FcγRIII
T4 sequence: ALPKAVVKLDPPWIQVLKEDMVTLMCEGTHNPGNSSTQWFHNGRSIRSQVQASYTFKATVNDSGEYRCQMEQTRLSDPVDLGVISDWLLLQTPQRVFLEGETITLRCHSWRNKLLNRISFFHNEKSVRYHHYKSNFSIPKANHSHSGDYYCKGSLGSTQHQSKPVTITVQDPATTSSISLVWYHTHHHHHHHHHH
Procedure: as §1, with “1964” for “2017”, “hz515H7VH1D76NVL2” for “c515H7”
as §2
Using the Langmuïr model the constant of dissociation was around 17 and 18 nM.

[6] = target: T4, Recombinant mouse FcγRIII [CD16], …; test: SPR (Biacore X): m-FcγRIII injected over hz515H7VH1D76NVL2 Mab immobilized on a CM4 sensorchip; heterogeneous ligand model, minor component (34%)
[7] = target: T3, Recombinant mouse FcγRI [CD64], …; test: SPR (Biacore X), heterogeneous ligand model, m-FcγRI as analyte
Procedure: as §1, with “1964” for “2017”, “hz515H7VH1D76NVL2” for “c515H7”
as §2
(§4) According to this model, the hz515H7VH1D76NVL2 Mab Fc domain may be regarded as a mixture of two components.

[8] = target: T3, Recombinant mouse FcγRI [CD64], …; test: SPR (Biacore X): m-FcγRI injected over hz515H7VH1D76NVL2 Mab immobilized on a CM4 sensorchip; Langmuir model
Procedure: as §1, with “1964” for “2017”, “hz515H7VH1D76NVL2” for “c515H7”
as §2
After each injection of the analyte, the sensorchip was regenerated by injection of either 20 mM NaOH solution after h-FcγRI and m-FcγRIII or 10 mM NaOH after h-FcγRIIIA and m-FcγRI.

[9] = target: T3, Recombinant mouse FcγRI [CD64], …; test: SPR (Biacore X), Mab on CM4 chip, m-FcγRI as analyte, heterogeneous ligand model, major component
Procedure: as §1, with “1964” for “2017”, “hz515H7VH1D76NVL2” for “c515H7”
as §2, §4

T1 sequence (P12314 other isoform, or with tags, fused parts or gaps limits assumed): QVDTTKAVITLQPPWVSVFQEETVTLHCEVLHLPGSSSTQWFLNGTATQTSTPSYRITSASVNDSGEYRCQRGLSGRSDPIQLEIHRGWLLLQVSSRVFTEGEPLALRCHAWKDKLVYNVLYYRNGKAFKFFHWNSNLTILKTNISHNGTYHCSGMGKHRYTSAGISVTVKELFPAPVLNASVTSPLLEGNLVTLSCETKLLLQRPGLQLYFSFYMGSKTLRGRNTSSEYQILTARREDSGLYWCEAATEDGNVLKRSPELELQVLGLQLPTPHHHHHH
T2 sequence (P08637 other isoform, or with tags, fused parts or gaps mutant limits assumed, form in doubt): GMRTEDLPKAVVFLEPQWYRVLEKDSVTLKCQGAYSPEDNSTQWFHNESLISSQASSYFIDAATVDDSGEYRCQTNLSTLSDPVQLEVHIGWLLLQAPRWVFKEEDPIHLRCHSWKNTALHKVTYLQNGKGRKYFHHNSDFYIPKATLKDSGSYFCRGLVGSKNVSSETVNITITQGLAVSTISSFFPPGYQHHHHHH

Kd [1]: 0.06 nM | koff [1]: 7.3e-05 s⁻¹ | kon [1]: 1.14e+06 M⁻¹ s⁻¹ | Kd [2]: 395 nM | koff [2]: 0.185 s⁻¹ | kon [2]: 468000 M⁻¹ s⁻¹ | Kd [3]: 34.6 nM | koff [3]: 0.0387 s⁻¹ | kon [3]: 1.12e+06 M⁻¹ s⁻¹
B1: chimeric antibody c515H7 (antibody, human IgG1, kappa)
heavy: not shown
light: DIVMSQSPSSLAVSAGEKVTMSCKSSQSLFNSRTRKNYLAWYQQKPGQSPKLLIYWASARDSGVPARFTGSGSETYFTLTISRVQAEDLAVYYCMQSFNLRTFGGGTKLEIKRTVAAPSVFIFPPSDEQLKSGTASVVCLLNNFYPREAKVQWKVDNALQSGNSQESVTEQDSKDSTYSLSSTLTLSKADYEKHKVYACEVTHQGLSSPVTKSFNRGEC
notes: Human IgG1/kappa constant domains; also called c515H7 Mab; chimeric 515H7

Kd [4]: 0.93 nM | koff [4]: 0.00054 s⁻¹ | kon [4]: 578000 M⁻¹ s⁻¹ | Kd [5]: 17.4 nM | koff [5]: 0.00364 s⁻¹ | kon [5]: 209000 M⁻¹ s⁻¹ | Kd [6]: 61.4 nM | koff [6]: 0.0299 s⁻¹ | kon [6]: 487000 M⁻¹ s⁻¹ | fold association rate, major versus minor component [7]: 5.7 fold | fold dissociation rate, major versus minor component [7]: 4.8 fold | Kd [8]: 77 nM | koff [8]: 0.0648 s⁻¹ | kon [8]: 842000 M⁻¹ s⁻¹ | Kd [9]: 75 to 80 nM
B2: humanized antibody Hz515H7 VH1 D76N VL2 (antibody, human IgG1, kappa)
heavy: not shown
light: DIVMTQSPSSLAVSLGERATMSCKSSQSLFNSRTRKNYLAWYQQKPGQSPKLLIYWASARDSGVPARFTGSGSETYFTLTISRVQAEDLAVYYCMQSFNLRTFGQGTKVEIKRTVAAPSVFIFPPSDEQLKSGTASVVCLLNNFYPREAKVQWKVDNALQSGNSQESVTEQDSKDSTYSLSSTLTLSKADYEKHKVYACEVTHQGLSSPVTKSFNRGEC
notes: IgG1/kappa; also called hz515H7VL2; hz515H7-1
